# Target: T1, erythropoietin receptor on intact mouse spleen cells (mouse) (UniProt P14753)
# T1 sequence (looked up): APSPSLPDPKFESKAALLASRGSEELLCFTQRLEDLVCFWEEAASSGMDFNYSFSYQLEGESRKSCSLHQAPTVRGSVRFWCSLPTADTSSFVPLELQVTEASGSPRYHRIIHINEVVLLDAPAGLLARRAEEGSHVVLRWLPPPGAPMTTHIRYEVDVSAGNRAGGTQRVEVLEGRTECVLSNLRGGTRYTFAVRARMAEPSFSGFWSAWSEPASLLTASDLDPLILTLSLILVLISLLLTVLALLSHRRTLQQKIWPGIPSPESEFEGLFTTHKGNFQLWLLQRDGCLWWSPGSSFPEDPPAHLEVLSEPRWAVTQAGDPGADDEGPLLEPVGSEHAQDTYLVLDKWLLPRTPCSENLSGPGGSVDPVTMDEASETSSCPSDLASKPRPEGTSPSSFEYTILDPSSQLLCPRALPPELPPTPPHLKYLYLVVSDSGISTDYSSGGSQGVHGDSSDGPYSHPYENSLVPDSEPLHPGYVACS
# Assay: cell-based or functional assay
Substance,"SPECIFIC ACTIVITY (Krystal bioassay units per microgram by RIA, percent of wildtype erythropoietin), first set of experiments","SPECIFIC ACTIVITY (Krystal bioassay units per microgram by RIA, percent of wildtype erythropoietin), second set of experiments",reduction in activity below wildtype human recombinant erythropoietin (Krystal bioassay)
erythropoietin mutant R103E (from UniProt P01588 28-193) (ligand),0%,0%,1000 fold
erythropoietin mutant L102A (from UniProt P01588 28-193) (ligand),93.3%,–,–
erythropoietin mutant R103K (from UniProt P01588 28-193) (ligand),10.2%,25%,–
erythropoietin mutant R103D (from UniProt P01588 28-193) (ligand),0%,0%,1000 fold
erythropoietin mutant R103Q (from UniProt P01588 28-193) (ligand),0%,0%,1000 fold
erythropoietin mutant R103A (from UniProt P01588 28-193) (ligand),0%,0%,1000 fold
erythropoietin mutant R103N (from UniProt P01588 28-193) (ligand),0%,0%,1000 fold
erythropoietin mutant L108A (from UniProt P01588 28-193) (ligand),36.9%,–,–
erythropoietin mutant R103H (from UniProt P01588 28-193) (ligand),0%,–,–
erythropoietin mutant R103L (from UniProt P01588 28-193) (ligand),0%,0.4%,–

# Source: US6489293
